According to patent publication US20030073629A1 (published 2003):
Blank lines part the entries; values can stand above or below the binder they belong to.

B1: endogenous mature Omi from HEK293 cell extracts (38 kDa band) (enzyme)
chain: AVPSPPPASPRSQYNFIADVVEKTAPAVVYIEILDRHPFLGREVPISNGSGFVVAADGLIVTNAHVVADRRRVRVRLLSGDTYEAVVTAVDPVADIATLRIQTKEPLPTLPLGRSADVRQGEFVVAMGSPFALQNTITSGIVSSAQRPARDLGLPQTNVEYIQTDAAIDFGNSGGPLVNLDGEVIGVNTMKVTAGISFAIPSDRLREFLHRGEKKNSSSGISGSQRRYIGVMMLTLSPSILAELQLREPSFPDVQHGVLIHKVILGSPAHRAGLRPGDVILAIGEQMVQNAEDVYEAVRTQSQLAVQIRRGRETLTLYVTPEVTE
notes: also called HtrA2

How the values were obtained:
XIAP [1] = target: T1, XIAP (human, UniProt P98170 1-497); assay: far-western blot with ^35S-labeled in vitro translated XIAP
T1 construct: also called ^35S-labeled in vitro translated XIAP; ^35S-XIAP
T1 sequence (P98170 whole entry): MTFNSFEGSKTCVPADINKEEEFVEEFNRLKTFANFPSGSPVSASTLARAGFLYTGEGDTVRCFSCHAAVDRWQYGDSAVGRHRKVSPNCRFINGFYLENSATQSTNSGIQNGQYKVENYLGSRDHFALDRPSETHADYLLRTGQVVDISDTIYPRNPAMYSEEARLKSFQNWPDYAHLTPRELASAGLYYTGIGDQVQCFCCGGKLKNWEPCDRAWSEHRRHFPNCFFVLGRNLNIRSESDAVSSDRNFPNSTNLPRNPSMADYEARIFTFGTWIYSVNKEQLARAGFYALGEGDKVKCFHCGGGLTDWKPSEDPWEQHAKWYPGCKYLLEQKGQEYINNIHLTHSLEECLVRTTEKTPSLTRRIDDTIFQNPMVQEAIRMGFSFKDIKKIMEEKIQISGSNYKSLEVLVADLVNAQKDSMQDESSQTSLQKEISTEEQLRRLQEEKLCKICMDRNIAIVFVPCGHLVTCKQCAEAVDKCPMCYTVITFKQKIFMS
Excerpt: As mentioned above, the mechanism of IAP inhibition of caspases is conserved in mammals and insects. Accordingly, it is thought that other mammalian IAP-binding proteins are still undiscovered. To identify such proteins, a GST-BIR3 fusion protein was used as an affinity reagent to purify new IAP binding proteins from extracts of human HEK293 cells and mouse heart, kidney, liver and spleen tissues. […] Cells were homogenized and centrifuged once at 20,000×g and the supernatant was then subjected to centrifugation at 100,000×g. The resultant supernatant was pre-cleared with Glutathion-Sepharose beads and then incubated with GST-BIR3 bound to Glutathion-Sepharose beads for 12 hours at 4° C. The mixture was centrifuged at 500 rpm for three minutes and the GST-BIR3 bead pellet was washed three times in the lysis buffer. After binding the extracts to the GST-BIR3 protein, the bound proteins were eluted with 200 μM of the Smac IAP-binding motif peptide AVPIA (SEQ ID NO:2) at 37° C. for one hour and analyzed by far-western blotting with ³⁵S-labeled in vitro translated XIAP. Specifically, the affinity-purified proteins were subjected to SDS-PAGE electrophoresis and then transferred to a nitrocellulose membrane using standard western blotting technique. […]

XIAP [2] = target: T1, XIAP; assay: co-immunoprecipitation with Flag antibody from 293T cells, XIAP immunoblot
[3] = target: B1; assay: immunodepletion of 293 extracts with Smac monoclonal antibody, then GST-BIR3 pull-down
Experimental: The undepleted and depleted extracts were incubated with the GST-BIR3 protein and the bound proteins were eluted as above. The eluates were then analyzed by far-western blotting with ³⁵S-XIAP and by western blotting with the Smac antibody as described above (see FIG. 4, left and right panels, respectively). […] The asterisk in FIG. 4 indicates non-specific bands and the arrow indicates the IgG band.

[4] = target: T2, Omi-deltaAVPS (C-terminal His6-tagged recombinant mature Omi with the AVPS motif deleted) (human, UniProt O43464 138-458); assay: GST pull-down with purified recombinant proteins, Coomassie gel
T2 construct: also called Omi-ΔAVPS
T2 sequence: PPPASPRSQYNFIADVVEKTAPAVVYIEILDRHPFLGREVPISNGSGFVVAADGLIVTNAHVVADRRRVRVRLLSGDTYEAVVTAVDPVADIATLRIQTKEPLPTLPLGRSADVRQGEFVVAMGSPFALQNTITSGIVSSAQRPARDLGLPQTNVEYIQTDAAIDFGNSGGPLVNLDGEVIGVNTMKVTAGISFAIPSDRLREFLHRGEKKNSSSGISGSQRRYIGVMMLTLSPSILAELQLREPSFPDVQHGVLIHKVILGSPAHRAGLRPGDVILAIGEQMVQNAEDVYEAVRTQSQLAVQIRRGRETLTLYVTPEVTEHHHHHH
Excerpt: To determine whether a recombinant Omi lacking the first 133 residues (mature Omi) can interact with the GST-BIR3 fusion protein, this protein was expressed with a C-terminal His6 tag in bacteria and purified to apparent homogeneity (see FIG. 7B). […] FIGS. 7A and 7B show scanned images of Coomassie stained gels representing SDS-PAGE analysis of purified C-terminal His6-tagged recombinant wild type mature Omi (WT), Omi-ΔAVPS, Omi-S306A, and mature Smac (FIG. 7A) and recombinant Omi and Smac proteins with GST-BIR1, 2, GST-BIR3 or GST-BIR3-E314S fusion proteins (FIG. 7B). Both recombinant mature Omi and Smac were able to interact equally with the wild type GST-BIR3 protein but not with the GST-BIR3-E314S mutant ([…]). Mature Omi and Smac were also able to interact with the GST-BIR1, 2 fusion protein. […] However, deletion of the AVPS motif of mature Omi completely abolished its interaction with the GST-BIR3 fusion protein.

[5] = target: T3, M-Omi-GFP (active Omi-GFP fusion protein without the MTS, initiator methionine retained) (human, UniProt O43464 134-458); assay: GST-BIR3 precipitation of transfected cell extracts, immunoblot
T3 construct: also called Omi134-458-GFP; not shown: C-terminal GFP tag
T3 sequence: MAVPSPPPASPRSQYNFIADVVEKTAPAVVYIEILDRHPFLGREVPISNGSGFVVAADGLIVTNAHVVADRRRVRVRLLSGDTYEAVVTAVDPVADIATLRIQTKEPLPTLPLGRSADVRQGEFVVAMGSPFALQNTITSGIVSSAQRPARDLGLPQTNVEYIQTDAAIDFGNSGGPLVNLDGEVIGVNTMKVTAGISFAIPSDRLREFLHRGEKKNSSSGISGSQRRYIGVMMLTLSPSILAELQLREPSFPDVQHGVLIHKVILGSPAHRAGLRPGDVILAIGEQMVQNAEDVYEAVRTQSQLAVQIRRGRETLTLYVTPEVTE

[6] = target: T4, M-Omi-S/A-GFP (inactive S306A Omi-GFP fusion protein without the MTS, initiator methionine retained) (human, UniProt O43464 134-458); assay: as above
T4 construct: not shown: C-terminal GFP tag
T4 sequence: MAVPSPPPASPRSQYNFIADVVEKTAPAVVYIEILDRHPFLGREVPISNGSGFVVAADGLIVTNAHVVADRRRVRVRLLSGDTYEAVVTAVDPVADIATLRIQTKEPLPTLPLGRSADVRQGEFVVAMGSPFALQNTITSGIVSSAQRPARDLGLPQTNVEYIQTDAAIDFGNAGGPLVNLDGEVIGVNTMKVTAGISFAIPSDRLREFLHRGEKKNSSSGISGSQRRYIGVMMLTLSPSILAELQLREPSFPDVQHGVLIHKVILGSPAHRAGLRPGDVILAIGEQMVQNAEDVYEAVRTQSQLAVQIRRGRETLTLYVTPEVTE

[7] = target: T5, Omi-S/A with the AVPS motif mutated to SSAS, from GFP-IETD-SSA (human, UniProt O43464 137-458); assay: GST-BIR3 precipitation of transfected 293T cell extracts, Flag immunoblot
T5 construct: expressed as GFP-IETD fusion
T5 sequence: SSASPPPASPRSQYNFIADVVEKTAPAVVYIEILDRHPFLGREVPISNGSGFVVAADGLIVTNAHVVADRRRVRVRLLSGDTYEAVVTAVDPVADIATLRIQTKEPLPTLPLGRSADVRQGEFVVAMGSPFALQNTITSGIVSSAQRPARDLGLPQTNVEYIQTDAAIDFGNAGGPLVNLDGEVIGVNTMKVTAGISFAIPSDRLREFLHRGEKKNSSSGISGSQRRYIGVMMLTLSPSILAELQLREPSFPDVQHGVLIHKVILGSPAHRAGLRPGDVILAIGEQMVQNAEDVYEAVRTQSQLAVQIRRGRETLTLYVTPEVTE

Binder: B1
binding result (XIAP [1]): binds

binding result (XIAP [2]): no binding
B2: mature Omi with the AVPS motif mutated to AAAS, processed in 293T cells from a C-terminal Flag-tagged mutant precursor (enzyme)
chain: AAASPPPASPRSQYNFIADVVEKTAPAVVYIEILDRHPFLGREVPISNGSGFVVAADGLIVTNAHVVADRRRVRVRLLSGDTYEAVVTAVDPVADIATLRIQTKEPLPTLPLGRSADVRQGEFVVAMGSPFALQNTITSGIVSSAQRPARDLGLPQTNVEYIQTDAAIDFGNSGGPLVNLDGEVIGVNTMKVTAGISFAIPSDRLREFLHRGEKKNSSSGISGSQRRYIGVMMLTLSPSILAELQLREPSFPDVQHGVLIHKVILGSPAHRAGLRPGDVILAIGEQMVQNAEDVYEAVRTQSQLAVQIRRGRETLTLYVTPEVTE
notes: also called AAAS mutant; not shown: C-terminal Flag tag

binding result [3]: no binding
B3: endogenous mature Smac/Diablo from HEK293 cell extracts (23 kDa band) (other, human, UniProt Q9NR28 56-239, looked up)
chain: AVPIAQKSEPHSLSSEALMRRAVSLVTDSTSTFLSQTTYALIEAITEYTKAVYTLTSLYRQYTSLLGKMNSEEEDEVWQVIIGARAEMTSKHQEYLKLETTWMTAVGLSEMAAEAAYQTGADQASITARNHIQLVKLQVEEVHQLSRKAETKLAEAQIEELRQKTQEEGEERAESEQEAYLRED
notes: mature

binding result [4]: no binding
binding result [5]: no binding
binding result [6]: no binding
binding result [7]: no binding
B4: GST-BIR3 fusion protein (BIR3 domain of human XIAP fused to GST) (other, UniProt P98170 238-358, looked up)
chain: RSESDAVSSDRNFPNSTNLPRNPSMADYEARIFTFGTWIYSVNKEQLARAGFYALGEGDKVKCFHCGGGLTDWKPSEDPWEQHAKWYPGCKYLLEQKGQEYINNIHLTHSLEECLVRTTEK
notes: domain: BIR3; also called wild type GST-BIR3; XIAP-BIR3; not shown: glutathione-S-transferase (GST) fusion partner
